This passage reports reduction of solvent accessible surface area on binding and reduction of solvent accessible surface area on binding, share of the total accessible surface area of unbound receptors and ligands results from US20140371143A1.

In this test the target is RANKL ectodomain (eRANKL, residues 157-316) of rat (rat) (UniProt Q9ESE2). In words: crystal structure of the complex.
UniProt Q9ESE2, sequence (Q9ESE2 157-316 limits assumed): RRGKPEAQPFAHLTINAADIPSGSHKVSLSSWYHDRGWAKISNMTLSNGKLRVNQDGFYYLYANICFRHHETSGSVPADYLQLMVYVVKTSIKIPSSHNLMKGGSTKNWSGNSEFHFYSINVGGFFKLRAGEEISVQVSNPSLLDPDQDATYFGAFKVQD

“RANK ectodomain (eRANK, residue 32-201) of rat (receptor)” gave a reduction of solvent accessible surface area on binding of 7680 Å^2; a reduction of solvent accessible surface area on binding, share of the total accessible surface area of unbound receptors and ligands of 15.4%.
